B1: TPR t1 (parent)
chain: GACCAAUCUGCCCUCAGAGCUCGAGAACAUCUUCGGAUGCAGAGGAGGCAGGCUUCGGUGGCGCGAUAGCGCCAACGUCCUCAACCUCCAAUGCAUCCCACCACAUGAUGAUGCCUGAAGAGCCUUGGUUUUUUG

Variants of: B1
Test: polymerase ribozyme fitness, log enrichment relative to wild type (log ratio); higher = more active; in vitro selection for triplet polymerase activity
Procedure, shortened: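 Libraries of mutants in each subunit of a heterodimeric triplet polymerase ribozyme were generated by PCR and transcribed. In triplicate, each went through one in vitro selection round: annealing with biotinylated primer, partner subunit and triplets; frozen incubation at −7 °C; gel excision of extended constructs; streptavidin-bead capture; RT-PCR. Fitness, taken from Illumina sequencing of input and output libraries, is the logarithm of a genotype's enrichment over wild-type enrichment, averaged across replicates with inverse-variance weights. The logarithm is base 2, and genotypes needed ≥10 input reads and ≥1 read per output to be kept.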

Row | Variant | polymerase ribozyme fitness (log ratio)
1 | GACCAAUCUGCCCUCAGAGCUCGAGAACAUCUUCGGGUGCAGAGGAGGCAGGCUUCGGUGGCGCGAUAGCGCCAACGUCCUCAACCUCCAAUGCAACCCACCACAUGAUGAUGCCUGAAGAGCCUUGGUUUUUUG | -3.44
2 | GACCAAUCUGCUCUCAGAGCUCGAGAACAUCUUCGGAUGCAGAGUAGGCAGGCUUCGGUGGCGCGAUAGCGCCAACGUCCUCAACCUCCAAUGCAUCCCACCACAUGAUGAUGCCUGAAGAGCCUUGGUUUUUUG | -0.901
3 | GACCAAUCUGCACUCAGAGCUCGAGAACAUCUUCGGAUGCAGAGGAGGCAGGCUUCGGUGGCGCGAUAGCACCAACGUCCUCAACCUCCAAUGCAUCCCACCACAUGAUGAUGCCUGAAGAGCCUUGGUUUUUUG | -1.07
4 | GACCAAUCUGCCCUCAGAGCUCGAGAACAUCUUCGGAUGCAGAGGAGGCAGGCUUCGGUGGUGCGAUAGCGCCAACGUCCUCAACCUCCAAUGCAUGCCACCACAUGAUGAUGCCUGAAGUGCCUUGGUUUUUUG | -2.46
5 | GACCAAUCUGCCCUCAGAGCUCGAGAACAUCUUCGGAUGCAGAGGAGGCAGGCUUCAGUGGCGCGAUAGCGCCAACGUCCUCAACCUCCAAUGCCUCCCACCACAUGAUGAUGCCUGAAGAGCCUUGGUUUUUUG | -1.81
6 | GACCAAUCUGCCCUCAGAGCUCGAGAACAUCUUCGGAUGCAGAGGAGGCAGGCUUCGGUCGCGCGAUAGCGCCAACGUCCUCAACCUCUAAUGCAUCCCACCACAUGAUGAUGCCUGAAGAGGCUUGGUUUUUUG | 1.06
7 | GACCAAUCGGCCCUCAGAGCUCGAGAACAUCUUCGGAUGCAGAGAAGGCAGGCUUCGGUGGCGCGAUAGCGCCAACGUCCUCAACCUCCAAUUCAUCCCACCACAUGAUGAUGACUGAAGAGCCUUGGUUUUUUG | -2.75
8 | GACCAAUCUGCCCUCAGAGCUCGAGAACAUCUUCGGAUGCAGUGGAGGCAGGCUUCGGUGGCCCGAUAGCGCCAACGCCCUCAACCUCCAAUGCAUCCCACCACAUGAUGAUGCCUGAAGAGCCUUGGUUUUUUG | -3.61
9 | GACCAAUCUGCCCUCAGAGCUCGAGAACAUCUUCGGAUGCUGAGGAGGCAGGCUUCGGUGGCGCGAUAGCGCCAACGUCCUCAACCUCCAAUGCAUCCCACCACAUGAUGAUGCCUGAAGAGGCUUGGUUUUUUG | 0.0535
10 | GACCAAUCUGCCCUCAGAGCUCGAGAACAUCUUCGGCUGCAUAGGAGCCUGGCUUCGGUGGCGCGAUAGUGCCAACGUCCUCAACCUCCAAUGCAUCCCACCACAUGAUGAUGCCUGAAUAGCUUUGGUUUUUUG | -3.73
11 | GACCAAUCUGCCCUCAGAGCUCGAGAACAUCUUCGGAUGCAGAGGAGGCAGGUUUCGGUGGCGCGAUAGCGGCAACGUCCUCAACCUCCAAUGCAUCCCACCACAUGAUGAUCCCUGAAGAGCCUUGGAUUUUUG | -4.76
12 | GACCAAUCUGCUCUCAGAGCUCGAGAACAUCUUCGGAUGCAGAGGAGGCAGGCUUCGGUGGCGCGAUAGCGCCAACGUCCUCAACCUCCAAUGCAUCCCACCACAUGAUGAUGCCUGAAGAGCCUUGGUUUUGUG | -0.256
13 | GACCAAUCUGCCCUCAGAGCUCGAGAACAUCUUCGGAUGGAGAGGAGGCAGGCUUCGGUGGCGCGAUAGCGCCAACGUCCUCAACCUCCAAGGCAUCCCACCACAUGAUGAUGCCUGAAGAGCCUUGGUUUUUUG | -2.95
14 | GACCCAUCUGCCCUCAGAGCUCGAGAACAUCUUCGGAUGAAGAGGAGGCAGGCUUCGGUGGCGUGAUAGCGCCAACGUCCUCAACCUCUAAUGCAUCCCACUACAAGAUGAUGCCUGAAGAGCCUUGGUUUUUUG | -7.21
15 | GUCCAAUCUGCCCUCAGAGCUCGAGAACAUCUUCGGAUGCAGAGGAGGCAGGCUUCGGUGGCGUGAUAGCGCCAACGUCCUCAACCUCGAAUGCAUCCCACCACAUGAUGAUGCCUGAAGAGCCUUGGUUUUUUG | -5.12
16 | GACCAAUCUGCCCUCAGGGCUCGAGAACAUCUUCGGAUGCAGAGGAGGCAGGCUUCGGUGGCGCGAUAGCGGCAACGUCCUCAGCCUCCAAAGCAUCCCACCACAUGAUGAUGCAUGAAGAGCCUUGGUUUUUUG | -5.47
17 | GACCGAUCUGCCCUCAGAGCUCGAGAACAUCUUCGGAUGCAGAGGAGGCAGGCUUCGGUGGCGCGAUAGCGCCAACGUCCUCAACCUACACUGCAUCCCACCACAUGAUGAUGGCUGAAGCGCCUUGGUUUUUUG | -0.389
18 | GACCAUUCUGCCCUCAGAGCUCGAGAACAUCUUCGGAUGCAGAGGAGGCAGGCUUCACUGGCGCGAUAGCGCCAACGUCCUCAACCUCCAAUGCAUCCCACCCCCUGAUGAUGCCUGAAGAGCCUUGGUUUUUUG | -6.92
19 | GACCAAUCUGCCCUCAGAGAUCGAGAACAUCUUCGGAUGCAGAGGAGGCAGGCUUCGGUGGCGCGAUAGCGCCAACGUCCUCAACCGCCAAGGCAUCCCACCACAUGAUGAUGCCUGAAGAGCCUUGGUUUUUUG | -4.3
20 | GACCAAUCUGCCCUCAGAGCUCGAGAACAUCUUCGGAUGCACAGGAGGCAGGCUUCGGUGGCGCGAUAGCGCCAACGUCCUCAACCUCCAAUGCAUCCCACCACAUGAUGAAGCCUGAAGAGCCUUGGUUUUUUG | -0.562
21 | GACCAAUCUGCCCUCAGAGCUCGAGAACAUCUUCGGAUGCAGAGGAGUCAGGCUUCGGUGGCGCGAUAGCGCCAACGUCCUCAACCUACACUGCAUCCCACCACAUGAUGAUGCCUGAAGAGCCUUGGUUUUUUG | -2.5

Row | Variant | polymerase ribozyme fitness (log ratio)
22 | GACCAAUCUGCCCUCAGAGCUCGAGAACAUCUUCGGAUGCAGUGGAGGCAGGCUUCGGUGGCUCGAUAGCGCCAACGUCCUCAACCUCCAAUGCAUCCCACCACAUGAUGAUUCCUGAGGAGCCUUGGUUUUUUG | -2.34
23 | GACCAAUCUGCCCUCAGAGCUCGAGAACAUUUUCGGAUGCAGAGGAGGCAGGCUUCCGUGGCGCGAUAGCGCCAACGUCCUCAACCUCCAAUGCAUCCCACCACAAGAUGAUGCCUGAAGAGCCUUGGUUUUUUG | -0.497
24 | GACCAAUCUGCCCUCAGAGCUCGAGAACAUCCUCGGAUGCAGAGGAGGCAGGCUUCGGUGGCGCGAUAGCGCCAACGUCCUCAACCUCCAAUGCAUCCCACCACAUGAUGAUGCCUGAACAGCCUUGGUUUUUUG | 1.83
25 | GACCAAUCUGCCAUCAGAGCUCGAGAACGUCUUCGGAUGCAGAGGAGGCAGGUUUCGGUGGCGCGAUAGCGCCAACGUCCUCAACCUCCAAUGCAUCCCACCACACGAUGAUGCCUGAAGAGCCUUGGUUUUUUG | -5.28
26 | GACCAAUCUGUCUUCAGAGCUCGAGAACAUCCUCGGAUGCAGAGGAGGCAGGCUUCGGUGGCGCGAUAGCGCCAACGUCCUCAACCUCCAAUGCAUCCCACCACAUGAUGAUGCCUGAAGAGCCUUGGUUUUUUG | -1.05
27 | GACCAAUCUGCCCUCAGAGCUCGAGAACAUCUUCGGAUGCAGAGGAGGCAGGCUUCGGUGGCGCGAUAGCGCCAACGUCCUCAACCUCCAAUGCAUCCGACCACAUGAUCAUGCCUGAAGAGCCUUGGUUUUUUG | -7.23
28 | GACCAAUCUGCCCUCAGAGCUCGAGAGCAUCUUCGGAUGCAGAGGAGGCAGGCUUCGGCGGCGCGAUGGCGCCAACGUCCUCAACCUCCAAUGCAUCCUACCACAUGAUGAAGCCUGAAGAGCCUUGGUUUUUUG | -5.37
29 | GACCCAUCUGGCCUCAGAGCUCGAGAACAUCUUCGGAUGCAGAGGAGGCAGGCUUCGGUGGCGCGAUAGCGCCAACGUUCUCAACCUCCAAUGCAUCCCACCACAUGAUGAUGCCUCAAGAGCCUUGGUUUUUUG | -1.88
30 | GACCAAUCUGCCAUCAGAGCUCGAGAACAUCUUCGGAUGCAGAGGAGGCAGGCUUCGGUGGCGCGAUAGCGUCAACGUCCUCAACCUCCAAUGCAUCCCACCACAUGAUGAUGCCUGAAGAGCCUUGGUUUUUUG | -1.96
31 | GACCAAUCUGCCCUCAGAGCUCGAGAACAUCUUCGGAUACAGAGGAGGCAGGCUUCGGUGGCGCGAUAGCGCCAACGUCCUCAACCUCCAAUACAUCCCACCACAUGAUGAGGCCUGAAGAGACUUGGUUUUUUG | -3.6
32 | GACCAAUCUGCCCUCAGAGCUCGAGAACAUCUUCGGAUGCAGAGGAGGCAGGCUUCGGUGGCGCGAUAGCGACAACGUCCUCAACCUCUAAUGCAUCCCACCACAUGAUGAUGCCUGAAGAGCCUUGGUUUUUUG | -0.157
33 | GACCAAUCUGCGCUCAUAGCUCGAGAACAUCUUCGGAUGCAGAGGAGGCAGGCUUCCGUGGAGCGAUAGCGCCAACGUCCUCAACCUCCAAUGCAUCCCACCACAUGAUGAUGCGUGAAGAGCCUUGGCUUCUUG | -3.27
34 | GACCAAUCUGCCCUCAGCGCUCGAGAACAUCUUCGGAUGCAGAGGAGGCAGGCUUCGGUGGCGCGAUAGCGCCAACGUCCUCAACCUCCAAGGCAUCCCACCACAUGAUGAUGCCUGAAGGGCCUUGGUUUUUUG | -0.659
35 | GACCAAUAUGCCCUCAGAGCUGGAGAACAUCUUCGGAUGCAGAGGAGGCAGGCUUCGGUGGCGCGAUAGCGCCAACGUCCUCAACCUCCAAUGCAUCCCACCACAUGAUGAUUGCUGAAGAGCCUUGGUUUUUUG | -3.52
36 | GACCAAUCUGCCCUCAGAGCUCGAGAACAUCUUCGGAUGCAGAGGAGGAAGGCUUCGGUGGCGCGAUAGCGCCAACGUCCUCAACCUCCAAUGCAUCCCACCACAGGAUGAUGCCUGAAGAGCCUUGGUUUUUUG | -2.41
37 | GUCCAAUCUGGCCUCAGAGCUCGAGAACAUCUUCGGAUGCAGAGGAGGCAGGCUUCGGUGGCGCGAUAGCGCCAACGUCCUCAACCUCCAAUGCAUCCCACCACAUGAUGAUGCCUGAAAAGCCUUGGUUUAUUG | 0.742
38 | GACCAAUCUGCCCUCAGAGCUCGAGAACAUCUUCGGUUGCAGAGGAGGCAGGCUUCGGUGGCGCGAUAGCGCCAACGUCCUCAACCUCCAAUGCAUCCCACCACAUGAUGAUGCCUGAACAGCCUUGGUUUUUUG | -0.129
39 | GACCAAUCUGCCCUCAGAGCUCGAGAACAUCUUCGGAUGCAGAGGAGGCAGGCUUCGGUGGCGCGAUAGCGCCAACGUCCUCAACCUCCAAUGCAUCCCACCAUAUGAUGUUGCCUGAGGAGCCUUGGUUUUUUG | -1.53
40 | GACCAAUCGGCCCUCAGAGCUCGAGAACAUCUUCGGAUGCAGAGGAGGCAGGUUUCGGUGGCGCGAUAGCGCCAACGUCCUCAACCUCCAAUGCCUCCCACCACAUGAUGAUGCAUGAAGAGCCUUGGUUUUUUG | 0.969
41 | GACCUAUCUGCCCUCAGAGCUGGAGAACAUCUUCGGAUGCAGAGGAGGCAGGCUUCGGUGGCGCGUUAGCGCCAACGUCCUCAACCUCCAAUGCAUCCCACCACAUGAUGAAGCCUGAAGAGCCUGGGUUUUUUG | -3.51
42 | GACCAAUCUGCCCUCAGAGCACGAGAACAUCUUCGGAUGCAGAGGUGGCAGGCUUCGGUGGCGCGAUAGCGCCAACGUCCUCAACCUCCAAUACAUCCCACCACAUGAUGAUUCCUGAAGAGCCUUGGUAUAUUG | -3.92

Source: the RNAGym collection of RNA variant scans (doi:10.1073/pnas.2313332121)
